Results taken from publication PMC5016687, “The Effectors and Sensory Sites of Formaldehyde-responsive Regulator FrmR and Metal-sensing Variant” (The Journal of Biological Chemistry, 2016).

Tests used:
FrmR [1] = molecular target: T1, FrmR (Salmonella enterica, UniProt A0A0H3NLH8, C35A); assay: biochemical
T1 construct: gene SL1344_1558

FrmR [2] = molecular target: T2, FrmR (Salmonella enterica, UniProt A0A0H3NLH8, P2S); assay: biochemical
T2 construct: gene SL1344_1558

FrmR [3] = molecular target: T3, FrmR (Salmonella enterica, UniProt A0A0H3NLH8); assay: biochemical
T3 construct: gene SL1344_1558

RcnR [4] = molecular target: RcnR (Salmonella enterica, UniProt Q7CPV3); assay: biochemical
[5] = molecular target: FrmR^E64H (Salmonella enterica serovar Typhimurium FrmR with Glu64 to His) (Salmonella enterica serovar Typhimurium strain SL1344); assay: crystal structure; FrmR E64H 0.5 mM in 400 mM NaCl, 1 mM EDTA, 1 mM DTT, 10 mM HEPES pH 7.0; crystals in 20 mM NaCl, 23% (w/v) PEG 4000, 10 mM BisTris pH 6.5, hanging drop vapor diffusion at 20 °C; one homotetramer in the asymmetric unit; 2.19 Å
RcnR [6] = molecular target: T4, RcnR (Salmonella enterica serovar Typhimurium …, UniProt Q7CPV3 1-90); assay: fluorescence anisotropy; 5 mM EDTA, apo; 10 mM HEPES pH 7.0, 60 mM NaCl, 240 mM KCl, 5 mM EDTA (or 5 uM NiCl2/CoCl2), 25 C, 10 nM DNA; anaerobic except FrmRC35A; Kd per tetramer (two nondissociable tet); details: protein: recombinant; chain copies: 8; label: 5'-HEX on strand 1; blunt
T4 sequence: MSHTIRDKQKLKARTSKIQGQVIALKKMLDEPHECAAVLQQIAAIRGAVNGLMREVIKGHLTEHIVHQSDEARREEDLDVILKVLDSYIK

RcnRS2P = RcnRS2P (Salmonella enterica serovar Typhimurium …, UniProt Q7CPV3 1-90, S2P); assay: as above; details: protein: recombinant; chain copies: 8; label: 5'-HEX on strand 1; blunt
FrmR [7] = molecular target: FrmR (Salmonella enterica serovar Typhimurium …, UniProt A0A0H3NLH8 2-91); assay: fluorescence anisotropy; 800 uM GSH, 5 mM EDTA; 10 mM HEPES pH 7.0, 60 mM NaCl, 240 mM KCl, 5 mM EDTA (or 5 uM NiCl2/CoCl2), 25 C, 10 nM DNA; anaerobic except FrmRC35A; Kd per tetramer (two nondissociable tet); details: protein: recombinant; chain copies: 8
FrmRP2S = FrmRP2S (Salmonella enterica serovar Typhimurium …, UniProt A0A0H3NLH8 1-91, P2S); assay: fluorescence anisotropy; 5 mM EDTA, apo; 10 mM HEPES pH 7.0, 60 mM NaCl, 240 mM KCl, 5 mM EDTA (or 5 uM NiCl2/CoCl2), 25 C, 10 nM DNA; anaerobic except FrmRC35A; Kd per tetramer (two nondissociable tet); details: protein: recombinant; chain copies: 8
FrmRE64H = FrmRE64H (Salmonella enterica serovar Typhimurium …, UniProt A0A0H3NLH8 2-91, E64H); assay: as above; details: protein: recombinant; chain copies: 8

Molecule: C=O [formaldehyde]
- Kd (FrmR [1]): > 100000 nM
- Kd (FrmR [2]): > 50000 nM
- Kd (FrmR [3]): 10000 to 20000 nM
- Kd (RcnR [4]): > 100000 nM

Molecule: FrmR^E64H (Salmonella enterica serovar Typhimurium FrmR with Glu64 to His) (natural protein)
- stoichiometry N [5]: 4

B1: rcnRAPro (dsDNA)
DNA 1: TACTCCCCCCCAGTATAGAATACTACCCCCCAGTA
DNA 2: TACTGGGGGGTAGTATTCTATACTGGGGGGGAGTA
- Kd (RcnR [6]): 150 nM
- Kd (RcnRS2P): 160 nM

B2: frmRAPro (dsDNA)
DNA 1: TTCTGATAGTATACCCCCCTATAGTATATGGAG
DNA 2: CTCCATATACTATAGGGGGGTATACTATCAGAA
- binding signal (FrmR [7]): ~2.5 fold tighter Kd vs apo
- Kd (FrmRP2S): 150 nM
- binding result (FrmRE64H): binds
